Reference: the supplement of paper PMC7125110
± gives the standard error. Variants at the floor of the assay were thinned out.

B1: glmS ribozyme (parent)
chain: AUAAAAGCGCCAGAACUACAGAAAUGUAGUUGACGAGGAGGAGGUUUAUCGAAUUUUCGGCGGAUGCCUCCAAA

What was measured:
Conditions in all cases: with glucosamine-6-phosphate
glucosamine-6-phosphate [1] = variants of: B1; assay: self-cleavage kobs at 640 uM GlcN6P; higher = faster cleavage; RNA array
In short: (§1)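 Ribozyme variants carrying barcodes were transcribed in situ on sequenced MiSeq chips by E. coli RNA polymerase and tracked at 37 °C with a hybridised Cy3 probe. They were exposed to 40 μM to 10 mM glucosamine-6-phosphate in HEPES/KCl/Mg(OAc)2 buffer. kobs came from exponential decay fits of normalised per-tile medians, and kcat and KM from weighted Michaelis–Menten fits.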

glucosamine-6-phosphate [2] = variants of: B1; assay: self-cleavage kobs at 2500 uM GlcN6P; higher = faster cleavage; RNA array
In short: as §1

glucosamine-6-phosphate [3] = variants of: B1; assay: self-cleavage kobs at 10000 uM GlcN6P; higher = faster cleavage; RNA array
In short: as §1

Variant	self-cleavage kobs at 640 uM GlcN6P (glucosamine-6-phosphate [1])	self-cleavage kobs at 2500 uM GlcN6P (glucosamine-6-phosphate [2])	self-cleavage kobs at 10000 uM GlcN6P (glucosamine-6-phosphate [3])
G32A G44U C67U	0.000148 ± 2.8e-05 s⁻¹	0.000244 ± 5.3e-05 s⁻¹	–
A33U G38U	< 1e-05 s⁻¹	< 1e-05 s⁻¹	< 1e-05 s⁻¹
G35C A39C A52U G60C G63U	< 1e-05 s⁻¹	< 1e-05 s⁻¹	–
A33U C34U C71G	< 1e-05 s⁻¹	–	–
A36U G51U U56G G59A G66A	< 1e-05 s⁻¹	–	–
G38U G44C U56C	< 1e-05 s⁻¹	< 1e-05 s⁻¹	–
U31C G44A C50A	< 1e-05 s⁻¹	–	–
A36C C67A	< 1e-05 s⁻¹	–	–
G37U G38U G43A	< 1e-05 s⁻¹	–	–
G32U C34G U69G	8.49e-05 ± 2.2e-05 s⁻¹	–	–
G35A G60U C70G	< 1e-05 s⁻¹	< 1e-05 s⁻¹	–
U31C A42G C70U	0.000788 ± 0.00029 s⁻¹	–	–
C34A G35A U65G	< 1e-05 s⁻¹	–	–
G38C C58A C71U	< 1e-05 s⁻¹	–	–
C34G G41U G51C C71G	< 1e-05 s⁻¹	–	–
G35U U47G A52G C70A	9.25e-05 ± 3.2e-05 s⁻¹	–	–
G40A A52G C71A	0.000146 ± 2.8e-05 s⁻¹	0.000203 ± 7.7e-05 s⁻¹	–
G32C A42U G60A	< 1e-05 s⁻¹	–	–
G37U G38U C68A	0.00155 ± 0.00045 s⁻¹	–	–
G38U C50U C58A U69A	0.000295 ± 9.9e-05 s⁻¹	0.000466 ± 0.00018 s⁻¹	–
G32U G51A U57A	< 1e-05 s⁻¹	< 1e-05 s⁻¹	–
G35U G38U G41C	< 1e-05 s⁻¹	< 1e-05 s⁻¹	–
G35A A53C G63C	< 1e-05 s⁻¹	< 1e-05 s⁻¹	–
G37U U55G U69G	3.09e-05 ± 1.4e-05 s⁻¹	–	–
G38U A48U C61G C71U	< 1e-05 s⁻¹	–	–
G32C C70G	0.000253 ± 8.1e-05 s⁻¹	–	2.34e-05 ± 9.6e-06 s⁻¹

Variant	self-cleavage kobs at 640 uM GlcN6P (glucosamine-6-phosphate [1])	self-cleavage kobs at 2500 uM GlcN6P (glucosamine-6-phosphate [2])	self-cleavage kobs at 10000 uM GlcN6P (glucosamine-6-phosphate [3])
G35C G51U A64C	< 1e-05 s⁻¹	< 1e-05 s⁻¹	–
G32U C34G G41C A53U A64C U65G	< 1e-05 s⁻¹	< 1e-05 s⁻¹	–
U30G A52C C71G	< 1e-05 s⁻¹	–	–
G32U G35U G40A U55A	< 1e-05 s⁻¹	–	–
U30G A39C U55G	0.000198 ± 5.5e-05 s⁻¹	0.000726 ± 0.00014 s⁻¹	0.00144 ± 0.00047 s⁻¹
U31G C58A G60C	< 1e-05 s⁻¹	< 1e-05 s⁻¹	–
G32U C34A	< 1e-05 s⁻¹	< 1e-05 s⁻¹	< 1e-05 s⁻¹
G38U U46A G59A C70A	< 1e-05 s⁻¹	< 1e-05 s⁻¹	–
U30G A39C U54G	0.0002 ± 3.1e-05 s⁻¹	0.00053 ± 8.2e-05 s⁻¹	0.00136 ± 0.0002 s⁻¹
U31C U56A	0.00164 ± 0.00028 s⁻¹	0.00201 ± 0.00053 s⁻¹	–
A33G A39C G41A C50A	< 1e-05 s⁻¹	–	–
A39G G60U C67G	< 1e-05 s⁻¹	< 1e-05 s⁻¹	< 1e-05 s⁻¹
U31C A53G U65G	0.000195 ± 3.6e-05 s⁻¹	0.000454 ± 7.6e-05 s⁻¹	0.000519 ± 9.8e-05 s⁻¹
G37A G63A C71A	< 1e-05 s⁻¹	< 1e-05 s⁻¹	–
U31C A39U C67A	0.000787 ± 0.00025 s⁻¹	0.000712 ± 0.00021 s⁻¹	0.000846 ± 0.0002 s⁻¹
G32C G63U U69G	0.00126 ± 0.00029 s⁻¹	–	–
G38U U45G G51A	< 1e-05 s⁻¹	< 1e-05 s⁻¹	–
G35C G60A C71U	< 1e-05 s⁻¹	–	–
G32A G35U U57A	< 1e-05 s⁻¹	–	–
G35A G51A U54A G63U	< 1e-05 s⁻¹	–	–
G38U C50G G62U	0.000714 ± 0.00023 s⁻¹	6.98e-05 ± 2e-05 s⁻¹	–
A33C U45G U55C	< 1e-05 s⁻¹	–	–
U30G U49C	< 1e-05 s⁻¹	< 1e-05 s⁻¹	–
C34G G63A C67A	< 1e-05 s⁻¹	< 1e-05 s⁻¹	–
G32C G35C U47C C58U	< 1e-05 s⁻¹	–	–
A36C A48U U54G G60U G63U A64G	< 1e-05 s⁻¹	–	–

Variant	self-cleavage kobs at 640 uM GlcN6P (glucosamine-6-phosphate [1])	self-cleavage kobs at 2500 uM GlcN6P (glucosamine-6-phosphate [2])	self-cleavage kobs at 10000 uM GlcN6P (glucosamine-6-phosphate [3])
C34G G60A G62C U69G	< 1e-05 s⁻¹	–	–
C34A A42C C61U	< 1e-05 s⁻¹	< 1e-05 s⁻¹	–
A33G A36G U47G C71G	0.000121 ± 4.4e-05 s⁻¹	–	–
A39G U45G C71U	0.00169 ± 0.0004 s⁻¹	0.0041 ± 0.0017 s⁻¹	–
U31C C67G C68G	5.49e-05 ± 1.6e-05 s⁻¹	–	–
G35U G38A G51U	< 1e-05 s⁻¹	–	–
A33G G59A	< 1e-05 s⁻¹	–	< 1e-05 s⁻¹
G32A G51U C68G	0.000156 ± 5.8e-05 s⁻¹	–	–
A36U A52G G62C C71A	< 1e-05 s⁻¹	–	–
G35A G43C A53U U54A	< 1e-05 s⁻¹	< 1e-05 s⁻¹	–
A39C A42U G62C A64U	< 1e-05 s⁻¹	–	–
G35A A39U G51C	< 1e-05 s⁻¹	< 1e-05 s⁻¹	–
U31G G32A U54C	0.000129 ± 3.8e-05 s⁻¹	0.000702 ± 0.00023 s⁻¹	–
G37C G60U U69A	< 1e-05 s⁻¹	< 1e-05 s⁻¹	–
G32C A33G G35A C61A	< 1e-05 s⁻¹	–	–
A39U A52G U54G U57C	3.84e-05 ± 1.7e-05 s⁻¹	0.00016 ± 4.9e-05 s⁻¹	–
G37A A42U G44C G59A	< 1e-05 s⁻¹	< 1e-05 s⁻¹	–
G35C C58A C67U	< 1e-05 s⁻¹	–	–
G32U A36U G44U A48G	< 1e-05 s⁻¹	< 1e-05 s⁻¹	–
U30G U49A G66C	< 1e-05 s⁻¹	–	–
G35A C50G C68U C70G	0.000738 ± 0.00024 s⁻¹	0.000111 ± 4.4e-05 s⁻¹	–
G32C G44U G51U A53U C58G	< 1e-05 s⁻¹	–	–
C34U G38U U46C U56G G60U	< 1e-05 s⁻¹	–	–
C34G G43C A52G	< 1e-05 s⁻¹	< 1e-05 s⁻¹	–
G35C G43U C61U	< 1e-05 s⁻¹	< 1e-05 s⁻¹	–
A33U A36C U45C	< 1e-05 s⁻¹	–	–

Variant	self-cleavage kobs at 640 uM GlcN6P (glucosamine-6-phosphate [1])	self-cleavage kobs at 2500 uM GlcN6P (glucosamine-6-phosphate [2])	self-cleavage kobs at 10000 uM GlcN6P (glucosamine-6-phosphate [3])
U30G U47C	0.000187 ± 6.5e-05 s⁻¹	0.00013 ± 6.3e-05 s⁻¹	–
A36C G41U A53G	< 1e-05 s⁻¹	–	–
A36U U65C C70G	0.000173 ± 7.9e-05 s⁻¹	–	–
A36C G43U U45G U46C U65G	< 1e-05 s⁻¹	< 1e-05 s⁻¹	–
A36G G37U A42C G44U	< 1e-05 s⁻¹	–	< 1e-05 s⁻¹
G37U G44C U47C G63A	< 1e-05 s⁻¹	< 1e-05 s⁻¹	–
G37C U46G C50U	< 1e-05 s⁻¹	–	< 1e-05 s⁻¹
A39U A52C A53G A64U	< 1e-05 s⁻¹	< 1e-05 s⁻¹	–
G32U G35U A42U U56A U57A G62U	< 1e-05 s⁻¹	< 1e-05 s⁻¹	–
G35C G38A C68G	0.00152 ± 0.00066 s⁻¹	–	–
A33G G43U C70G	< 1e-05 s⁻¹	–	–
C34G C58U C68G	9.4e-05 ± 2.9e-05 s⁻¹	–	–
G38C G60C U65G	< 1e-05 s⁻¹	–	–
G35U A39U G62A	< 1e-05 s⁻¹	< 1e-05 s⁻¹	–
A39G U49A G60U	< 1e-05 s⁻¹	< 1e-05 s⁻¹	–
U31C G38A C71U	< 1e-05 s⁻¹	–	–
C34G A48G C70U	< 1e-05 s⁻¹	–	–
A36C G38U U49A	< 1e-05 s⁻¹	< 1e-05 s⁻¹	–
G37A U56G A64U	< 1e-05 s⁻¹	< 1e-05 s⁻¹	–
U31G G44U G62U	< 1e-05 s⁻¹	< 1e-05 s⁻¹	–
C34A C67U	< 1e-05 s⁻¹	< 1e-05 s⁻¹	–
C34U C58A G59U	< 1e-05 s⁻¹	< 1e-05 s⁻¹	–
A36U G40U A42G	< 1e-05 s⁻¹	–	–
A39G G51A	< 1e-05 s⁻¹	< 1e-05 s⁻¹	–
G32U A33U G35U A36C C50U	< 1e-05 s⁻¹	–	–
C34U G38U A42G	< 1e-05 s⁻¹	< 1e-05 s⁻¹	–

Variant	self-cleavage kobs at 640 uM GlcN6P (glucosamine-6-phosphate [1])	self-cleavage kobs at 2500 uM GlcN6P (glucosamine-6-phosphate [2])	self-cleavage kobs at 10000 uM GlcN6P (glucosamine-6-phosphate [3])
U30G G32A G38C U57C U65C	< 1e-05 s⁻¹	< 1e-05 s⁻¹	–
A33U C34G	< 1e-05 s⁻¹	< 1e-05 s⁻¹	< 1e-05 s⁻¹
C34G C61U C70G	< 1e-05 s⁻¹	< 1e-05 s⁻¹	–
U30G G40C A53G G62C	< 1e-05 s⁻¹	–	–
A36G G62A	< 1e-05 s⁻¹	< 1e-05 s⁻¹	< 1e-05 s⁻¹
U30C G43A C71U	< 1e-05 s⁻¹	–	–
A36C G51U A53C	< 1e-05 s⁻¹	< 1e-05 s⁻¹	< 1e-05 s⁻¹
G37U C70G C71A	5.1e-05 ± 1.4e-05 s⁻¹	–	–
G35U A42G A48U	< 1e-05 s⁻¹	–	–
A33G A48C C61A C67G	< 1e-05 s⁻¹	–	< 1e-05 s⁻¹
A39G G51C U65C U69A C70A	< 1e-05 s⁻¹	< 1e-05 s⁻¹	–
U31G C70A	0.000129 ± 2.6e-05 s⁻¹	9.72e-05 ± 2.7e-05 s⁻¹	0.000372 ± 0.00014 s⁻¹
C34A G35U A42C	< 1e-05 s⁻¹	–	–
G32C C67G U69G	< 1e-05 s⁻¹	–	< 1e-05 s⁻¹
G35U U57C	< 1e-05 s⁻¹	< 1e-05 s⁻¹	–
A39G G62U C70U	< 1e-05 s⁻¹	< 1e-05 s⁻¹	–
U31A C50G C61G	0.000119 ± 4.7e-05 s⁻¹	0.000103 ± 3.8e-05 s⁻¹	–
A36U C61U C71U	< 1e-05 s⁻¹	–	< 1e-05 s⁻¹
C34U C50G U54A	0.000235 ± 6.6e-05 s⁻¹	0.000344 ± 0.0001 s⁻¹	–
U30G G37U G40U	< 1e-05 s⁻¹	< 1e-05 s⁻¹	–
C34U G38A A42G	< 1e-05 s⁻¹	–	–
G32A A39G U46C	0.000174 ± 4.5e-05 s⁻¹	0.000355 ± 0.00011 s⁻¹	–
G32A G37C C61U C67U	< 1e-05 s⁻¹	–	–
C34A G59U G60A G63U	< 1e-05 s⁻¹	–	–
G32U C58A C70G	0.000218 ± 7.9e-05 s⁻¹	0.000221 ± 5.9e-05 s⁻¹	–
